Laboratory results reported in PMC9904277 (2023).

Biological target: MCL-1 (Homo sapiens, UniProt Q07820)
Experiment: competition fluorescence anisotropy

Chain of MCL-1 (Q07820 whole entry): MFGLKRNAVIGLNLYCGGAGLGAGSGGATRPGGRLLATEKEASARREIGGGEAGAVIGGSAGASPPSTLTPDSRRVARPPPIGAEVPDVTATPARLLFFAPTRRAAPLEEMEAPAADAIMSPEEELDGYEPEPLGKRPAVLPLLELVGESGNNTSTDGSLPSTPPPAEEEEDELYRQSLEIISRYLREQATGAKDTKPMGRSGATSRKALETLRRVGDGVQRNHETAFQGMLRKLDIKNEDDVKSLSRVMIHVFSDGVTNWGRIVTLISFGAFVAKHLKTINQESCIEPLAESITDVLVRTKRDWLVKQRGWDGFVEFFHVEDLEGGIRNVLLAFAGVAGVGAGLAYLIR

| IC50 [nM] | Binder |
| --- | --- |
| > 50000 | NLWAAQRYGRELRRMSDEFVDSFKK [BAD-wt BH3] |
| 2700 | SAAQLTAARLKALGDELHQRTMW [HRK-wt 28-50] |
